Literature values in patent US6878743B2, “Small molecule inhibitors of caspases” (Sunesis Pharmaceuticals, Inc., priority 2001, dated 2005).

Columns and labels:
caspase-1 = target: T1, caspase-1 (Homo sapiens, UniProt P29466); details: Garcia-Calvo et al. 1998
T1 sequence (P29466 120-297 limits assumed): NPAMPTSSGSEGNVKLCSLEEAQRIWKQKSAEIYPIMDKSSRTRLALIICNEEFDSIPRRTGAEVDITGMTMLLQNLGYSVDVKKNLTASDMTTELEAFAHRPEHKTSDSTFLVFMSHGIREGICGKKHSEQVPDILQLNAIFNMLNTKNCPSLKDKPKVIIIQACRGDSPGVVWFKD
T1 sequence (P29466 317-404 limits assumed): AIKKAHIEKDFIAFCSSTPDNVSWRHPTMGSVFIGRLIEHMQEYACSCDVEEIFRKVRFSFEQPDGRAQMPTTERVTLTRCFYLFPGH

caspase-3 = target: T2, caspase-3 (Homo sapiens, UniProt P42574); details: Garcia-Calvo et al. 1998
T2 sequence (P42574 29-175 limits assumed): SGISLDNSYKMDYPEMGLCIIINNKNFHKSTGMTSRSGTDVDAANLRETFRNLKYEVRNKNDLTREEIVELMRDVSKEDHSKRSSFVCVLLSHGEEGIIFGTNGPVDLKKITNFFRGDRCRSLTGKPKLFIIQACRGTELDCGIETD
T2 sequence (P42574 176-277 limits assumed): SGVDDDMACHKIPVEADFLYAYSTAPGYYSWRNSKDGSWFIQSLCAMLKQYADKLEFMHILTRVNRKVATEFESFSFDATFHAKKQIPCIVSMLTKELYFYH

Substance | Ki (caspase-1) [nM] | Ki (caspase-3) [nM]
Ac-Asp-Glu-Val-Asp-CHO | 18 | 
Ac-Tyr-Val-Ala-Asp-CHO | 0.056 | 1960
